In the Human Domainome abundance scans (Beltran et al. 2025):
± gives the uncertainty stated by the source.

B1: Serine/threonine-protein kinase A-Raf, residues 21 to 89; numbered along this chain, P10398 (parent)
chain: VKVYLPNKQRTVVTVRDGMSVYDSLDKALKVRGLNQDCCVVYRLIKGRKTVTAWDTAIAPLDGEELIVE

Variants of: B1
Experiment: abundance fitness (aPCA) (normalised: wild type 0, dead -1); higher = more abundant; growth selection in yeast, the domain comes from the species named
Conditions: Homo sapiens
Variant VKVYLPNKQRTVVTVRDGMSVYDSLDKALKVRGLNQDCCVIYRLIKGRKTVTAWDTAIAPLDGEELIVE has an abundance fitness of -0.507 ± 0.17. In the case of VKVYLPNKQRTVVTVRDGMSVYDSLDKALKVRGLNQDCCVSYRLIKGRKTVTAWDTAIAPLDGEELIVE, the abundance fitness is reported as -0.515 ± 0.17. Work on VKVYLPNKQRTVVTVRDGMSVYDSLDKALKVRGLNQDCCVGYRLIKGRKTVTAWDTAIAPLDGEELIVE yielded an abundance fitness of -0.899 ± 0.12. Work on VKVYLPNKQRTVVTVRDGMSVYDSLDKALKVRGLNQDCCVCYRLIKGRKTVTAWDTAIAPLDGEELIVE yielded an abundance fitness of -0.15 ± 0.072. In the case of VKVYLPNKQRTVVTVRDGMSVYDSLDKALKVRGLNQDCCVWYRLIKGRKTVTAWDTAIAPLDGEELIVE, the abundance fitness is reported as -0.549 ± 0.1. For VKVYLPNKQRTVVTVRDGMSVYDSLDKALKVRGLNQDCCVMYRLIKGRKTVTAWDTAIAPLDGEELIVE, the abundance fitness was -0.711 ± 0.16. Variant VKVYLPNKQRTVVTVRDGMSVYDSLDKALKVRGLNQDCCVDYRLIKGRKTVTAWDTAIAPLDGEELIVE has an abundance fitness of -0.841 ± 0.19. VKVYLPNKQRTVVTVRDGMSVYDSLDKALKVRGLNQDCCVHYRLIKGRKTVTAWDTAIAPLDGEELIVE gave an abundance fitness of -0.641 ± 0.25. Variant VKVYLPNKQRTVVTVRDGMSVYDSLDKALKVRGLNQDCCVAYRLIKGRKTVTAWDTAIAPLDGEELIVE has an abundance fitness of -0.274 ± 0.061. Work on VKVYLPNKQRTVVTVRDGMSVYDSLDKALKVRGLNQDCCVFYRLIKGRKTVTAWDTAIAPLDGEELIVE yielded an abundance fitness of -0.846 ± 0.24. VKVYLPNKQRTVVTVRDGMSVYDSLDKALKVRGLNQDCCVPYRLIKGRKTVTAWDTAIAPLDGEELIVE gave an abundance fitness of -0.555 ± 0.15. With VKVYLPNKQRTVVTVRDGMSVYDSLDKALKVRGLNQDCCVQYRLIKGRKTVTAWDTAIAPLDGEELIVE the abundance fitness was -0.849 ± 0.17. In the case of VKVYLPNKQRTVVTVRDGMSVYDSLDKALKVRGLNQDCCFVYRLIKGRKTVTAWDTAIAPLDGEELIVE, the abundance fitness is reported as -0.828 ± 0.14. VKVYLPNKQRTVVTVRDGMSVYDSLDKALKVRGLNQDCCSVYRLIKGRKTVTAWDTAIAPLDGEELIVE showed an abundance fitness of -0.321 ± 0.05. In the case of VKVYLPNKQRTVVTVRDGMSVYDSLDKALKVRGLNQDCCTVYRLIKGRKTVTAWDTAIAPLDGEELIVE, the abundance fitness is reported as -0.164 ± 0.072. In the case of VKVYLPNKQRTVVTVRDGMSVYDSLDKALKVRGLNQDCCQVYRLIKGRKTVTAWDTAIAPLDGEELIVE, the abundance fitness is reported as 0.073 ± 0.14. VKVYLPNKQRTVVTVRDGMSVYDSLDKALKVRGLNQDCCYVYRLIKGRKTVTAWDTAIAPLDGEELIVE showed an abundance fitness of -0.273 ± 0.093. VKVYLPNKQRTVVTVRDGMSVYDSLDKALKVRGLNQDCCAVYRLIKGRKTVTAWDTAIAPLDGEELIVE gave an abundance fitness of -0.021 ± 0.055. For VKVYLPNKQRTVVTVRDGMSVYDSLDKALKVRGLNQDCCIVYRLIKGRKTVTAWDTAIAPLDGEELIVE, the abundance fitness was -0.09 ± 0.15. Work on VKVYLPNKQRTVVTVRDGMSVYDSLDKALKVRGLNQDCCRVYRLIKGRKTVTAWDTAIAPLDGEELIVE yielded an abundance fitness of -0.131 ± 0.051. For VKVYLPNKQRTVVTVRDGMSVYDSLDKALKVRGLNQDCCMVYRLIKGRKTVTAWDTAIAPLDGEELIVE, the abundance fitness was -0.058 ± 0.098. Variant VKVYLPNKQRTVVTVRDGMSVYDSLDKALKVRGLNQDCCLVYRLIKGRKTVTAWDTAIAPLDGEELIVE has an abundance fitness of -0.259 ± 0.057. Work on VKVYLPNKQRTVVTVRDGMSVYDSLDKALKVRGLNQDCCPVYRLIKGRKTVTAWDTAIAPLDGEELIVE yielded an abundance fitness of -0.925 ± 0.2. Work on VKVYLPNKQRTVVTVRDGMSVYDSLDKALKVRGLNQDCCGVYRLIKGRKTVTAWDTAIAPLDGEELIVE yielded an abundance fitness of -0.857 ± 0.094. With VKVYLPNKQRTVVTVRDGMSVYDSLDKALKVRGLNQDCCEVYRLIKGRKTVTAWDTAIAPLDGEELIVE the abundance fitness was -0.253 ± 0.11. VKVYLPNKQRTVVTVRDGMSVYDSLDKALKVRGLNQDCCCVYRLIKGRKTVTAWDTAIAPLDGEELIVE gave an abundance fitness of -0.087 ± 0.072. Work on VKVYLPNKQRTVVTVRDGMSVYDSLDKALKVRGLNQDCCKVYRLIKGRKTVTAWDTAIAPLDGEELIVE yielded an abundance fitness of -0.117 ± 0.13. With VKVYLPNKQRTVVTVRDGMSVYDSLDKALKVRGLNQDCCVVPRLIKGRKTVTAWDTAIAPLDGEELIVE the abundance fitness was -0.926 ± 0.15. With VKVYLPNKQRTVVTVRDGMSVYDSLDKALKVRGLNQDCCVVMRLIKGRKTVTAWDTAIAPLDGEELIVE the abundance fitness was -0.684 ± 0.13. Variant VKVYLPNKQRTVVTVRDGMSVYDSLDKALKVRGLNQDCCVVNRLIKGRKTVTAWDTAIAPLDGEELIVE has an abundance fitness of -0.159 ± 0.25. For VKVYLPNKQRTVVTVRDGMSVYDSLDKALKVRGLNQDCCVVFRLIKGRKTVTAWDTAIAPLDGEELIVE, the abundance fitness was -0.004 ± 0.069. In the case of VKVYLPNKQRTVVTVRDGMSVYDSLDKALKVRGLNQDCCVVLRLIKGRKTVTAWDTAIAPLDGEELIVE, the abundance fitness is reported as -1.02 ± 0.17. In the case of VKVYLPNKQRTVVTVRDGMSVYDSLDKALKVRGLNQDCCVVIRLIKGRKTVTAWDTAIAPLDGEELIVE, the abundance fitness is reported as -0.844 ± 0.35. For VKVYLPNKQRTVVTVRDGMSVYDSLDKALKVRGLNQDCCVVGRLIKGRKTVTAWDTAIAPLDGEELIVE, the abundance fitness was -0.824 ± 0.089. With VKVYLPNKQRTVVTVRDGMSVYDSLDKALKVRGLNQDCCVVARLIKGRKTVTAWDTAIAPLDGEELIVE the abundance fitness was -1.05 ± 0.22. For VKVYLPNKQRTVVTVRDGMSVYDSLDKALKVRGLNQDCCVVERLIKGRKTVTAWDTAIAPLDGEELIVE, the abundance fitness was -1.02 ± 0.26. VKVYLPNKQRTVVTVRDGMSVYDSLDKALKVRGLNQDCCVVDRLIKGRKTVTAWDTAIAPLDGEELIVE gave an abundance fitness of -0.928 ± 0.21. Variant VKVYLPNKQRTVVTVRDGMSVYDSLDKALKVRGLNQDCCVVKRLIKGRKTVTAWDTAIAPLDGEELIVE has an abundance fitness of -0.481 ± 0.16. VKVYLPNKQRTVVTVRDGMSVYDSLDKALKVRGLNQDCCVVHRLIKGRKTVTAWDTAIAPLDGEELIVE gave an abundance fitness of -0.557 ± 0.12.
